Assay results: patent US20220409745, “COMPOSITIONS AND METHODS OF USING ENGINEERED FUSION PROTEINS THAT BIND G4C2 HUMAN REPEATS” (The Regents of the University of California, published 2022)

Key:
ZFP106 Znf1 (Z1) [1] = target: T1, ZFP106 Znf1 (Z1) (Homo sapiens, UniProt Q9H2Y7 SEQ:1-25); assay: EMSA; binds G-q structure; details: G4
ZFP106 Znf1 (Z1) [2] = target: T1, ZFP106 Znf1 (Z1); assay: EMSA; binds non-G-q structure; details: non-G4

T1 sequence (Q9H2Y7 20-44): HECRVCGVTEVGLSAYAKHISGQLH

GGGGCCGGGGCCGGGGCCGGGGCCGGGGCCGGGGCCGGGGCCGGGGCC (ssRNA) [(G4C2)8 RNA G-quadruplex]
binding result (ZFP106 Znf1 (Z1) [1]): binds

GGGGCCGGGGCCGGGGCCGGGGCCGGGGCCGGGGCCGGGGCCGGGGCC (ssRNA) [(G4C2)8 RNA non-G-quadruplex]
binding result (ZFP106 Znf1 (Z1) [2]): binds
